Consider one substance from patent US20230416394A1.

One assay concerns the target human CD39 (human) (UniProt P49961). Nature of the assay: cell-based or functional assay.
Assay [1] deals with human TGFβ1 (human) (UniProt P01137). Nature of the assay: ELISA, coated human TGFβ1. (An ELISA detects its analyte on a solid surface through an enzyme-linked reagent.)
For assay [2] the target is unchanged. Nature of the assay: Octet, ES014-1 on sensor, TGFβ gradient.
Assay [3] deals with human CD39 protein (Octet assays) (human). Nature of the assay: Octet, ES014-1 on sensor, CD39 protein gradient. (Biolayer interferometry detects binding as a change in optical thickness at a sensor tip.)
Assay [4] addresses human TGFβ1 (human) (UniProt P01137). The assay is described as follows: ELISA, blocking of TGFβRII-His binding to coated TGFβ1.

human TGFβ1 (human), sequence (P01137 279-390 limits assumed): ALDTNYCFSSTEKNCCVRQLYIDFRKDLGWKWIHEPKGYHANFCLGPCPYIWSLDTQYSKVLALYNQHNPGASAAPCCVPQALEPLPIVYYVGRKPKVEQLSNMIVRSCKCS
human CD39 (human), sequence (P49961 whole entry): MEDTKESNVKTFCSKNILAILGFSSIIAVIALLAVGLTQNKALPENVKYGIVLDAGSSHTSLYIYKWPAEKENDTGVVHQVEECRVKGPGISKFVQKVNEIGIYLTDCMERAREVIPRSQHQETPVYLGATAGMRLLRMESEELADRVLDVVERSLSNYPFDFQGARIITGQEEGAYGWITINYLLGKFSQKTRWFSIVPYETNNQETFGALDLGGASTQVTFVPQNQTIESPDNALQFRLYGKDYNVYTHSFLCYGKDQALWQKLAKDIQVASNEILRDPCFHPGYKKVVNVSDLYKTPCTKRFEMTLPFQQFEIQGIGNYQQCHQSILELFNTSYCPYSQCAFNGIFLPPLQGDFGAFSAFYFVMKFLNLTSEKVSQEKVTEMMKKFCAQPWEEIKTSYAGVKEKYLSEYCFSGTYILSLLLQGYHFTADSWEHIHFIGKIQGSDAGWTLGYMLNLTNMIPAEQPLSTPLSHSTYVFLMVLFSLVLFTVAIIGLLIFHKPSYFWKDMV

As to ES014-1 (bispecific antibody), in the assay with human CD39 (human), the IC50 to CD39 ATPase activity on MOLP-8 cells (CellTiterGlo) came out at 1210 pM. Also, the EC50 (usually the midpoint of the concentration-response curve) in the assay with human TGFβ1 (human) [1] came out at 260 pM. For the same substance, in the assay with human TGFβ1 (human) [2], the Kd (usually the constant that tells how readily two partners part at equilibrium) turned out to be 37 pM; the koff (usually the rate constant with which the complex falls apart) turned out to be 0.000234 s⁻¹; the kon – broadly, the rate constant with which the complex forms – stood at 6.32e+06 M⁻¹ s⁻¹. In addition, in assay [3], the Kd worked out at 376 pM, the koff came to 3.44e-05 s⁻¹ and the kon turned out to be 91400 M⁻¹ s⁻¹. Further, the IC50 – broadly, the point on the concentration scale where inhibition reaches its midpoint – in the assay with human TGFβ1 (human) [4] turned out to be 3730 pM.
